Tested on: Actin of lily pollen tubes

Substance	lily pollen tube length after 2 h in vitro (control without RNase about 300 µm)	actin filaments distribution in lily pollen tubes (TRITC-phalloidin staining)	lily pollen tube length after 1.5 h in vitro (FIG. 31; control 0.26 mm)
RNase B1 boiled for 30 minutes	Boiling or autoclaving the RNase yielded pollen tubes of 130 and 170 µm in length, respectively		
autoclaved RNase B1	Boiling or autoclaving the RNase yielded pollen tubes of 130 and 170 µm in length, respectively		
Aspergillus niger B1 extracellular RNase (RNase B1)	reached only 160 µm in length	in RNase-treated pollen tubes masses of actin were accumulated at the tip cell wall	Both RNase B1 and IAc-RNase B1 exhibited a clear inhibitory effect on pollen tube growth
iodoacetylated (IAc-) RNase B1			IAc RNase B1 inhibits pollen tubes growth in a similar manner of non-modified RNase B1

Reference: patent US20050113327
